Data on two molecules can be found in patent US10323078B2, “Isolated peptides and fragments thereof from fibrinogen for use as drugs, particularly in skin inflammatory diseases” (Universite Paris Descartes, priority 2015, dated 2019).

The subject of one assay is Pfg. Description: Binding of biotinylated Pfg to immobilized fibrinogen (polystyrene plate). Set-up: species or system Propionibacterium acnes. The note with it: various quantities of fibrinogen immobilized; biotinylated Pfg 0.1 μg/ml, 2 h at 23° C. On the procedure: FIG. 5: Binding of P. acnes surface proteins to fibrinogen. (A) Various quantities of human fibrinogen (hFg) and bovine fibrinogen (bFg) were immobilized onto a 96-well polystyrene plate at 4° C. for 18 h and incubated with biotinylated Pfg at 0.1 μg/ml for 2 h at 23° C. Bovine serum albumin (BSA) was used as negative control. Bound material was detected by using the HRP-streptavidin conjugate. Peroxidase activity was measured by using the ABTS substrate at 405 nm. Proteins (10 μg per lane) were separated by 10% SDS-PAGE and detected by (B) Commassie blue staining, and transferred to nitrocellulose membrane and incubated with (C) HRP-streptavidine alone, and (D) biotinylated Pfg (0.1 μg/ml). Lanes 1: molecular weight standards. Lane 2: BSA. […]
To characterize the interaction between P. acnes and ligands, we used biotinylated molecules in quantitative and qualitative assays. […] For quantitative analysis, unlabeled protein were diluted into 50 mM carbonate-bicarbonate, pH 9.6 buffer to yield a protein concentration ranging from 0.01 to 50 μg/ml, and then immobilized to 96-well polystyrene plates at 4° C. overnight. […] After washing, bound peroxidase was detected using the chromogenic peroxidase substrate ABTS. […] Binding activity was detected by incubating the membranes with 20 ml of PBT containing biotinylated proteins (0.1 μg/ml) for 2 h at room temperature followed by three washes with PBT. […]

In the next assay the test system is ThP1 cells. Description: O2°− production by P. acnes-stimulated ThP1. Format: cell-based, human. The note with it: 0.87 to 7 μM. On the procedure:
For experiences of stimulation with P. acnes, cells were incubated with the P. acnes suspension adjusted at the appropriate concentration, pre-treated for 1 h at 37° C. or not with fibrinogen recombinant peptides Fg1 and Fg2 at the concentrations 0.87, 1.75, 3.5 or 7 μM for the desired period of time at 37° C. in 5% CO2.
All cells lines (5·10^4 to 10^5 cells/well) were seeded in 96-well plates (Corning Costar, Brumath, France) and treated as previously described. After stimulation, cells were washed three times in PBS and incubated with 100 μl per wells of 5 μM DHE (for determination of O2^●−) or 5 μM H2-DCFDA (for determination of H2O2) for 30 min as described previously and fluorescence intensity was recorded every hour over a period of 5 h. Fluorescence excitation/emission maxima were for DHE: 480/610 nm and for H2-DCFDA: 507/525 nm. At the end of the experiment, the number of adherent cells was evaluated by the crystal violet assay as described below. O2^●−, and H2O2 were assayed by spectrofluorimetry on a Fusion spectrofluorimeter (PackardBell, Paris, France). Levels of ROS were calculated in each sample as follows: reactive oxygen species rate (arbitrary units/min/10^6 cells)=(fluorescence intensity [arbitrary units] at T5h—fluorescence intensity [arbitrary units] at To/300 minutes/number of adherent cells as measured by the crystal violet assay, and were expressed as arbitrary unit (A.U.).
To assess the efficacy of Fg1 recombinant peptide, the production of O2^∘− and H2O2 by HaCaT cells NHDK, THP-1, MRC5 and HDF stimulated by pretreated P. acnes strains 6919, RON and PIE was measured. The amount of ROS produced was compared to that produced by the stimulated cells with untreated bacteria. Production baseline was obtained by measuring ROS on unstimulated cells. The production of IL-1ß, IL-8, IL-12 and TNF-α was also measured in all conditions cited above. The measurement of the production of ROS is performed by spectrofluorimetry in the presence of specific fluorochromes directly on the monolayer cell. Measurement of cytokine production was performed in parallel on the cell culture supernatant.
Two sets of experiments were implemented: 1) The cells were stimulated (18 h at 37° C.) by P. acnes strains previously pretreated with Fg1 and Fg2 peptides at the final concentrations ranging from 0.87 to 7 μM for 1 h at 37° C.; and 2) The cells were pretreated first with Fg1 and Fg2 peptides at the final concentrations ranging from 0.87 to 7 μM for 24 h at 37° C. and stimulated (18 h at 37° C.) by P. acnes strains.

Consider “human fibrinogen: purified commercial human fibrinogen (Sigma), glycoprotein hexamer of Aα, Bß and γ chains”, for which, in the assay with Pfg, the “Binding of biotinylated Pfg to immobilized fibrinogen” value is listed as “dose-dependent with a higher affinity for hFg”.

B1: MKRMVSWSFHKLKTMKHLLLLLLCVFLVKSQGVNDNEEGFFSARGHRPLDKKREEAPSLRPAPPPISGGGYRARPAKAAATQKKVERKAPDAGGCLHADPDLGVLC (protein)
chain: MKRMVSWSFHKLKTMKHLLLLLLCVFLVKSQGVNDNEEGFFSARGHRPLDKKREEAPSLRPAPPPISGGGRARPAKAAATQKKVERKAPDAGGCLHADPDLGVLCMKRMVSWSFHKLKTMKHLLLLLLCVFLVKSQGVNDNEEGFFSARGHRPLDKKREEAPSLRPAPPPISGGGYRARPAKAAATQKKVERKAPDAGGCLHADPDLGVLC
modifications: GST fusion; fragment Fg1
notes: fragment of Bß chain of human fibrinogen having 106 amino acids; recombinant GST-fused peptide expressed in E. coli
Regarding B1, the “Inhibition of Superoxide anion (O2°−) production” value with ThP1 cells (P. acnes 6919, set I, bacteria first pretreated) was “pos”; in the assay with ThP1 cells (P. acnes 6919, set II, cells first pretreated) it was “pos”; in the assay with ThP1 cells (P. acnes PIE, set I, bacteria first pretreated), “pos”; in the assay on ThP1 cells (P. acnes PIE, set II, cells first pretreated) it was “pos”; with ThP1 cells (P. acnes RON, set I, bacteria first pretreated), “pos”; with ThP1 cells (P. acnes RON, set II, cells first pretreated) it was “pos”.
